T1: human ANG-2 (R&D Systems) (UniProt O15123 68-496, biotinylated in the Tie-2 competition ELISA (site not stated))
T1 chain: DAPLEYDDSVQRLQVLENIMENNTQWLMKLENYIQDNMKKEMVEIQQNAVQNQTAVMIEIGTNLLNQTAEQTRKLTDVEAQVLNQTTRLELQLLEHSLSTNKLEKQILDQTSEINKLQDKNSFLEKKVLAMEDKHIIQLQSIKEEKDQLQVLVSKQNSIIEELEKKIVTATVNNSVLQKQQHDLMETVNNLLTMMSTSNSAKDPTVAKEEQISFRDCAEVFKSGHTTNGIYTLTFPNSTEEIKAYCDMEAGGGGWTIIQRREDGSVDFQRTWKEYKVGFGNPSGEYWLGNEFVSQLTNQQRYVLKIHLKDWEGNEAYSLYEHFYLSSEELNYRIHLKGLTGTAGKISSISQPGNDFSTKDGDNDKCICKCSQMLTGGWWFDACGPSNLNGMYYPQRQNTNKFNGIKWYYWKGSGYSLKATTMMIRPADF


How the values were obtained:
[1] = target: T1, human ANG-2 (R&D Systems); experiment: inhibition of ANG-2 binding to Tie-2 on HEK293 cells
A33A8 VH = experiment: BLI (Octet); VH domain alone

| IC50 [1] [nM] | Kd (A33A8 VH) [nM] | Binder |
| --- | --- | --- |
| 0.295 | – | A33A8 human anti-ANG-2 HCAb (antibody, V domains shown) VH: QVQLVESGGGLVQPGGSLRLSCAASGFTFSSYWMHWVRQAPGKGLVWVSRINSDGSSTSYADSVKGRFTISRDNAKNTLYLQMNSLRAEDTAVYYCAREGYSSGGQFDYWGQGTLVTVSS |
| – | < 0.001 | ANG-2 (ligand, biotinylated in the Tie-2 competition ELISA (site not stated)) DAPLEYDDSVQRLQVLENIMENNTQWLMKLENYIQDNMKKEMVEIQQNAVQNQTAVMIEIGTNLLNQTAEQTRKLTDVEAQVLNQTTRLELQLLEHSLSTNKLEKQILDQTSEINKLQDKNSFLEKKVLAMEDKHIIQLQSIKEEKDQLQVLVSKQNSIIEELEKKIVTATVNNSVLQKQQHDLMETVNNLLTMMSTSNSAKDPTVAKEEQISFRDCAEVFKSGHTTNGIYTLTFPNSTEEIKAYCDMEAGGGGWTIIQRREDGSVDFQRTWKEYKVGFGNPSGEYWLGNEFVSQLTNQQRYVLKIHLKDWEGNEAYSLYEHFYLSSEELNYRIHLKGLTGTAGKISSISQPGNDFSTKDGDNDKCICKCSQMLTGGWWFDACGPSNLNGMYYPQRQNTNKFNGIKWYYWKGSGYSLKATTMMIRPADF |
